Reference: patent publication US6596526

B1: Furin deletion mutant 578-711 (protein)
chain: QKVFTNTWAVRIPGGPAVANSVARKHGFLNLGQIFGDYYHFWHRGVTKRSLSPHRPRHSRLQREPQVQWLEQQVAKRRTKRDVYQEPTDPKFPQQWYLSGVTQRDLNVKAAWAQGYTGHGIVVSILDDGIEKNHPDLAGNYDPGASFDVNDQDPDPQPRYTQMNDNRHGTRCAGEVAAVANNGVCGVGVAYNARIGGVRMLDGEVTDAVEARSLGLNPNHIHIYSASWGPEDDGKTVDGPARLAEEAFFRGVSQGRGGLGSIFVWASGNGGREHDSCNCDGYTNSIYTLSISSATQFGNVPWYSEACSSTLATTYSSGNQNEKQIVTTDLRQKCTESHTGTSASAPLAAGIIALTLEANKNLTWRDMQHLVVQTSKPAHLNANDWATNGVGRKVSHSYGYGLLDAGAMVALAQNWTTVAPQRKCIIDILTEPKDIGKRLEVRKTVTACLGEPNHITRLEHAQARLTLSYNRRGDLAIHLVSPMGTRSTLLAARPHDYSADGFNDWAFMTTHSWDEDPSGEWVLEIENTSEANNYGTLTKFTLVLYGTAPEGHLPEVVAGLSCAFIVLVFVTVFLVLQLRSGFSFRGVKVYTMDRGLISYKGLPPEAWQEECPSDSEEDEGRGERTAFIKDQSAL
B2: Furin deletion mutant Helix 10 (protein)
chain: QKVFTNTWAVRIPGGPAVANSVARKHGFLNLGQIFGDYYHFWHRGVTKRSLSPHRPRHSRLQREPQVQWLEQQVAKRRTKRDVYQEPTDPKFPQQWYLSGVTQRDLNVKAAWAQGYTGHGIVVSILDDGIEKNHPDLAGNYDPGASFDVNDQDPDPQPRYTQMNDNRHGTRCAGEVAAVANNGVCGVGVAYNARIGGVRMLDGEVTDAVEARSLGLNPNHIHIYSASWGPEDDGKTVDGPARLAEEAFFRGVSQGRGGLGSIFVWASGNGGREHDSCNCDGYTNSIYTLSISSATQFGNVPWYSEACSSTLATTYSSGNQNEKQIVTTDLRQKCTESHTGTSASAPLAAGIIALTLEANKNLTWRDMQHLVVQTSKPAHLNANDWATNGVGRKVSHSYGYGLLDAGAMVALAQNWTTVAPQRKCIIDILTEPKDIGKRLEVRKTVTACLGEPNHITRLEHAQARLTLSYNRRGDLAIHLVSPMGTRSTLLAARPHDYSADGFNDWAFMTTHSWDEDPSGEWVLEIENTSEANNYGTLTKFTLVLYGTAPEGAEMWHQAMEVHLPEVVAGLSCAFIVLVFVTVFLVLQLRSGFSFRGVKVYTMDRGLISYKGLPPEAWQEECPSDSEEDEGRGERTAFIKDQSAL
B3: Furin deletion mutant Loop 10 (protein)
chain: QKVFTNTWAVRIPGGPAVANSVARKHGFLNLGQIFGDYYHFWHRGVTKRSLSPHRPRHSRLQREPQVQWLEQQVAKRRTKRDVYQEPTDPKFPQQWYLSGVTQRDLNVKAAWAQGYTGHGIVVSILDDGIEKNHPDLAGNYDPGASFDVNDQDPDPQPRYTQMNDNRHGTRCAGEVAAVANNGVCGVGVAYNARIGGVRMLDGEVTDAVEARSLGLNPNHIHIYSASWGPEDDGKTVDGPARLAEEAFFRGVSQGRGGLGSIFVWASGNGGREHDSCNCDGYTNSIYTLSISSATQFGNVPWYSEACSSTLATTYSSGNQNEKQIVTTDLRQKCTESHTGTSASAPLAAGIIALTLEANKNLTWRDMQHLVVQTSKPAHLNANDWATNGVGRKVSHSYGYGLLDAGAMVALAQNWTTVAPQRKCIIDILTEPKDIGKRLEVRKTVTACLGEPNHITRLEHAQARLTLSYNRRGDLAIHLVSPMGTRSTLLAARPHDYSADGFNDWAFMTTHSWDEDPSGEWVLEIENTSEANNYGTLTKFTLVLYGTAPEGGSPNSQPYDGHLPEVVAGLSCAFIVLVFVTVFLVLQLRSGFSFRGVKVYTMDRGLISYKGLPPEAWQEECPSDSEEDEGRGERTAFIKDQSAL

Each protein was assayed against recombinant von Willebrand Factor precursor, P04275.

| Protein | processing of rvWF precursor (Western blot) |
| --- | --- |
| B1 | the R683A, Helix 10, Loop 10 and 578-711 furin constructs evidence proteolytic activity |
| B2 | the R683A, Helix 10, Loop 10 and 578-711 furin constructs evidence proteolytic activity |
| B3 | the R683A, Helix 10, Loop 10 and 578-711 furin constructs evidence proteolytic activity |
